Laboratory results published in PMC3936751.

Assays:
[1] = test system: T1, hCdc45-His6 (Homo sapiens); test: SPR; conditions: EMSA: 50 mM HEPES-KOH pH 7.5, 150 mM KCl, 0.5 mM DTT, 50 ug/ml BSA, 30 C 10 min, SPR: 20 mM HEPES-KOH pH 7.5, 150 mM KCl, 1 mM DTT, 3 mM EDTA, 0.005% P20 …; for binding signal: scale: fold weaker than Y/bubble; for Kd: Cdc45 immobilized by anti-His
T1 sequence: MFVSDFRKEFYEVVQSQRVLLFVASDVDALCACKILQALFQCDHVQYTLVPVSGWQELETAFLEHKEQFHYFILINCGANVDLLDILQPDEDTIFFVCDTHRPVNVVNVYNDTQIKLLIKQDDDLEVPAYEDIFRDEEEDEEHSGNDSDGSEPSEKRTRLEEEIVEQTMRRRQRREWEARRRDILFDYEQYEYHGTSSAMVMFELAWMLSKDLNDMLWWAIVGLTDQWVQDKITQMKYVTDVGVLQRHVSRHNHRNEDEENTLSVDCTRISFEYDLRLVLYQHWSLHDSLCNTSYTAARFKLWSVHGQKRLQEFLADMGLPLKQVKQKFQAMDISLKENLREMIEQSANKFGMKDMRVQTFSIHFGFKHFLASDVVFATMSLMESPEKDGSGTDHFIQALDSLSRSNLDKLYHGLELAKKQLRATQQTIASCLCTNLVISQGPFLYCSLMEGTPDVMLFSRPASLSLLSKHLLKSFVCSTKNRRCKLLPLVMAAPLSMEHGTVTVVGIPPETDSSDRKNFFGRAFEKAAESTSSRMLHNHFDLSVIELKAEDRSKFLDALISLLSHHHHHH

[2] = test system: T1, hCdc45-His6 (Homo sapiens); test: EMSA; conditions: EMSA: 50 mM HEPES-KOH pH 7.5, 150 mM KCl, 0.5 mM DTT, 50 ug/ml BSA, 30 C 10 min, SPR: 20 mM HEPES-KOH pH 7.5, 150 mM KCl, 1 mM DTT, 3 mM EDTA, 0.005% P20 …

| Substance | binding signal [1] | Kd [1] [nM] | other results |
| --- | --- | --- | --- |
| R-loop | > 10 | – | – |
| Y-shaped DNA M3S4 (17 bp, two 17-mer overhangs) | – | 7.7 | – |
| D-loop M5M6M2 | > 10 | – | – |
| 67-mer ssDNA | – | – | binding signal (fold less efficient than 113-mer) ([2]; 2 nM DNA): 8.5 |
| bubble M5M6 (22 bp, 20 nt bubble, 22 bp) | – | 8 | – |
| 113-mer ssDNA | – | – | binding signal (% bound at 5 uM Cdc45) [2]: 85 |
